We go through 20 molecules from patent US20220040297A1 (Chugai, published 2022).

The chains are these.
B1: GLS3000 S27eA (antibody, name in Kabat numbering, V domains shown)
VH: QVQLVESGGGVVQPGRSLRLSCAASGFTFSNAWMHWVRQAPGKGLEWVAQIKAKSNNYATYYAESVKGRFTISRDDSKNSLYLQMNSLKTEDTAVYYCRYVHYGAYYGVDAWGQGTTVTVSS
VL: DIVMTQSPLSLPVTPGEPASISCRSSQSLVHANRNTYLHWYQQKPGQAPRLLIYKVSNRFSGVPDRFSGSGSGTDFTLKISRVEAEDVGVYYCGQGTQVPYTFGQGTKLEIK
notes: one-arm format as m2
B2: GLS3000 F55E (antibody, name in Kabat numbering, V domains shown)
VH: QVQLVESGGGVVQPGRSLRLSCAASGFTFSNAWMHWVRQAPGKGLEWVAQIKAKSNNYATYYAESVKGRFTISRDDSKNSLYLQMNSLKTEDTAVYYCRYVHYGAYYGVDAWGQGTTVTVSS
VL: DIVMTQSPLSLPVTPGEPASISCRSSQSLVHSNRNTYLHWYQQKPGQAPRLLIYKVSNRESGVPDRFSGSGSGTDFTLKISRVEAEDVGVYYCGQGTQVPYTFGQGTKLEIK
notes: one-arm format as m2
B3: GLS3000 F55A (antibody, name in Kabat numbering, V domains shown)
VH: QVQLVESGGGVVQPGRSLRLSCAASGFTFSNAWMHWVRQAPGKGLEWVAQIKAKSNNYATYYAESVKGRFTISRDDSKNSLYLQMNSLKTEDTAVYYCRYVHYGAYYGVDAWGQGTTVTVSS
VL: DIVMTQSPLSLPVTPGEPASISCRSSQSLVHSNRNTYLHWYQQKPGQAPRLLIYKVSNRASGVPDRFSGSGSGTDFTLKISRVEAEDVGVYYCGQGTQVPYTFGQGTKLEIK
notes: one-arm format as m2
B4: GLS3000 F55Y (antibody, name in Kabat numbering, V domains shown)
VH: QVQLVESGGGVVQPGRSLRLSCAASGFTFSNAWMHWVRQAPGKGLEWVAQIKAKSNNYATYYAESVKGRFTISRDDSKNSLYLQMNSLKTEDTAVYYCRYVHYGAYYGVDAWGQGTTVTVSS
VL: DIVMTQSPLSLPVTPGEPASISCRSSQSLVHSNRNTYLHWYQQKPGQAPRLLIYKVSNRYSGVPDRFSGSGSGTDFTLKISRVEAEDVGVYYCGQGTQVPYTFGQGTKLEIK
notes: one-arm format as m2
B5: GLS3000 F55S (antibody, name in Kabat numbering, V domains shown)
VH: QVQLVESGGGVVQPGRSLRLSCAASGFTFSNAWMHWVRQAPGKGLEWVAQIKAKSNNYATYYAESVKGRFTISRDDSKNSLYLQMNSLKTEDTAVYYCRYVHYGAYYGVDAWGQGTTVTVSS
VL: DIVMTQSPLSLPVTPGEPASISCRSSQSLVHSNRNTYLHWYQQKPGQAPRLLIYKVSNRSSGVPDRFSGSGSGTDFTLKISRVEAEDVGVYYCGQGTQVPYTFGQGTKLEIK
notes: one-arm format as m2
B6: GLS3000 F55D (antibody, name in Kabat numbering, V domains shown)
VH: QVQLVESGGGVVQPGRSLRLSCAASGFTFSNAWMHWVRQAPGKGLEWVAQIKAKSNNYATYYAESVKGRFTISRDDSKNSLYLQMNSLKTEDTAVYYCRYVHYGAYYGVDAWGQGTTVTVSS
VL: DIVMTQSPLSLPVTPGEPASISCRSSQSLVHSNRNTYLHWYQQKPGQAPRLLIYKVSNRDSGVPDRFSGSGSGTDFTLKISRVEAEDVGVYYCGQGTQVPYTFGQGTKLEIK
notes: one-arm format as m2
B7: GLS3000 F55G (antibody, name in Kabat numbering, V domains shown)
VH: QVQLVESGGGVVQPGRSLRLSCAASGFTFSNAWMHWVRQAPGKGLEWVAQIKAKSNNYATYYAESVKGRFTISRDDSKNSLYLQMNSLKTEDTAVYYCRYVHYGAYYGVDAWGQGTTVTVSS
VL: DIVMTQSPLSLPVTPGEPASISCRSSQSLVHSNRNTYLHWYQQKPGQAPRLLIYKVSNRGSGVPDRFSGSGSGTDFTLKISRVEAEDVGVYYCGQGTQVPYTFGQGTKLEIK
notes: one-arm format as m2
B8: GLS3000 F55I (antibody, name in Kabat numbering, V domains shown)
VH: QVQLVESGGGVVQPGRSLRLSCAASGFTFSNAWMHWVRQAPGKGLEWVAQIKAKSNNYATYYAESVKGRFTISRDDSKNSLYLQMNSLKTEDTAVYYCRYVHYGAYYGVDAWGQGTTVTVSS
VL: DIVMTQSPLSLPVTPGEPASISCRSSQSLVHSNRNTYLHWYQQKPGQAPRLLIYKVSNRISGVPDRFSGSGSGTDFTLKISRVEAEDVGVYYCGQGTQVPYTFGQGTKLEIK
notes: one-arm format as m2
B9: GLS3000 F55W (antibody, name in Kabat numbering, V domains shown)
VH: QVQLVESGGGVVQPGRSLRLSCAASGFTFSNAWMHWVRQAPGKGLEWVAQIKAKSNNYATYYAESVKGRFTISRDDSKNSLYLQMNSLKTEDTAVYYCRYVHYGAYYGVDAWGQGTTVTVSS
VL: DIVMTQSPLSLPVTPGEPASISCRSSQSLVHSNRNTYLHWYQQKPGQAPRLLIYKVSNRWSGVPDRFSGSGSGTDFTLKISRVEAEDVGVYYCGQGTQVPYTFGQGTKLEIK
notes: one-arm format as m2
B10: GLS3000 F55R (antibody, name in Kabat numbering, V domains shown)
VH: QVQLVESGGGVVQPGRSLRLSCAASGFTFSNAWMHWVRQAPGKGLEWVAQIKAKSNNYATYYAESVKGRFTISRDDSKNSLYLQMNSLKTEDTAVYYCRYVHYGAYYGVDAWGQGTTVTVSS
VL: DIVMTQSPLSLPVTPGEPASISCRSSQSLVHSNRNTYLHWYQQKPGQAPRLLIYKVSNRRSGVPDRFSGSGSGTDFTLKISRVEAEDVGVYYCGQGTQVPYTFGQGTKLEIK
notes: one-arm format as m2
B11: GLS3000 F55H (antibody, name in Kabat numbering, V domains shown)
VH: QVQLVESGGGVVQPGRSLRLSCAASGFTFSNAWMHWVRQAPGKGLEWVAQIKAKSNNYATYYAESVKGRFTISRDDSKNSLYLQMNSLKTEDTAVYYCRYVHYGAYYGVDAWGQGTTVTVSS
VL: DIVMTQSPLSLPVTPGEPASISCRSSQSLVHSNRNTYLHWYQQKPGQAPRLLIYKVSNRHSGVPDRFSGSGSGTDFTLKISRVEAEDVGVYYCGQGTQVPYTFGQGTKLEIK
notes: one-arm format as m2
B12: GLS3000 F55Q (antibody, name in Kabat numbering, V domains shown)
VH: QVQLVESGGGVVQPGRSLRLSCAASGFTFSNAWMHWVRQAPGKGLEWVAQIKAKSNNYATYYAESVKGRFTISRDDSKNSLYLQMNSLKTEDTAVYYCRYVHYGAYYGVDAWGQGTTVTVSS
VL: DIVMTQSPLSLPVTPGEPASISCRSSQSLVHSNRNTYLHWYQQKPGQAPRLLIYKVSNRQSGVPDRFSGSGSGTDFTLKISRVEAEDVGVYYCGQGTQVPYTFGQGTKLEIK
notes: one-arm format as m2
B13: GLS3000 F55P (antibody, name in Kabat numbering, V domains shown)
VH: QVQLVESGGGVVQPGRSLRLSCAASGFTFSNAWMHWVRQAPGKGLEWVAQIKAKSNNYATYYAESVKGRFTISRDDSKNSLYLQMNSLKTEDTAVYYCRYVHYGAYYGVDAWGQGTTVTVSS
VL: DIVMTQSPLSLPVTPGEPASISCRSSQSLVHSNRNTYLHWYQQKPGQAPRLLIYKVSNRPSGVPDRFSGSGSGTDFTLKISRVEAEDVGVYYCGQGTQVPYTFGQGTKLEIK
notes: one-arm format as m2
B14: GLS3000 F55V (antibody, name in Kabat numbering, V domains shown)
VH: QVQLVESGGGVVQPGRSLRLSCAASGFTFSNAWMHWVRQAPGKGLEWVAQIKAKSNNYATYYAESVKGRFTISRDDSKNSLYLQMNSLKTEDTAVYYCRYVHYGAYYGVDAWGQGTTVTVSS
VL: DIVMTQSPLSLPVTPGEPASISCRSSQSLVHSNRNTYLHWYQQKPGQAPRLLIYKVSNRVSGVPDRFSGSGSGTDFTLKISRVEAEDVGVYYCGQGTQVPYTFGQGTKLEIK
notes: one-arm format as m2
B15: GLS3000 F55T (antibody, name in Kabat numbering, V domains shown)
VH: QVQLVESGGGVVQPGRSLRLSCAASGFTFSNAWMHWVRQAPGKGLEWVAQIKAKSNNYATYYAESVKGRFTISRDDSKNSLYLQMNSLKTEDTAVYYCRYVHYGAYYGVDAWGQGTTVTVSS
VL: DIVMTQSPLSLPVTPGEPASISCRSSQSLVHSNRNTYLHWYQQKPGQAPRLLIYKVSNRTSGVPDRFSGSGSGTDFTLKISRVEAEDVGVYYCGQGTQVPYTFGQGTKLEIK
notes: one-arm format as m2
B16: GLS3000 F55N (antibody, name in Kabat numbering, V domains shown)
VH: QVQLVESGGGVVQPGRSLRLSCAASGFTFSNAWMHWVRQAPGKGLEWVAQIKAKSNNYATYYAESVKGRFTISRDDSKNSLYLQMNSLKTEDTAVYYCRYVHYGAYYGVDAWGQGTTVTVSS
VL: DIVMTQSPLSLPVTPGEPASISCRSSQSLVHSNRNTYLHWYQQKPGQAPRLLIYKVSNRNSGVPDRFSGSGSGTDFTLKISRVEAEDVGVYYCGQGTQVPYTFGQGTKLEIK
notes: one-arm format as m2
B17: GLS3000 F55K (antibody, name in Kabat numbering, V domains shown)
VH: QVQLVESGGGVVQPGRSLRLSCAASGFTFSNAWMHWVRQAPGKGLEWVAQIKAKSNNYATYYAESVKGRFTISRDDSKNSLYLQMNSLKTEDTAVYYCRYVHYGAYYGVDAWGQGTTVTVSS
VL: DIVMTQSPLSLPVTPGEPASISCRSSQSLVHSNRNTYLHWYQQKPGQAPRLLIYKVSNRKSGVPDRFSGSGSGTDFTLKISRVEAEDVGVYYCGQGTQVPYTFGQGTKLEIK
notes: one-arm format as m2
B18: GLS3000 G89A (antibody, name in Kabat numbering, V domains shown)
VH: QVQLVESGGGVVQPGRSLRLSCAASGFTFSNAWMHWVRQAPGKGLEWVAQIKAKSNNYATYYAESVKGRFTISRDDSKNSLYLQMNSLKTEDTAVYYCRYVHYGAYYGVDAWGQGTTVTVSS
VL: DIVMTQSPLSLPVTPGEPASISCRSSQSLVHSNRNTYLHWYQQKPGQAPRLLIYKVSNRFSGVPDRFSGSGSGTDFTLKISRVEAEDVGVYYCAQGTQVPYTFGQGTKLEIK
notes: one-arm format as m2
B19: GLS3000 F55M (antibody, name in Kabat numbering, V domains shown)
VH: QVQLVESGGGVVQPGRSLRLSCAASGFTFSNAWMHWVRQAPGKGLEWVAQIKAKSNNYATYYAESVKGRFTISRDDSKNSLYLQMNSLKTEDTAVYYCRYVHYGAYYGVDAWGQGTTVTVSS
VL: DIVMTQSPLSLPVTPGEPASISCRSSQSLVHSNRNTYLHWYQQKPGQAPRLLIYKVSNRMSGVPDRFSGSGSGTDFTLKISRVEAEDVGVYYCGQGTQVPYTFGQGTKLEIK
notes: one-arm format as m2
B20: GLS3000 F55L (antibody, name in Kabat numbering, V domains shown)
VH: QVQLVESGGGVVQPGRSLRLSCAASGFTFSNAWMHWVRQAPGKGLEWVAQIKAKSNNYATYYAESVKGRFTISRDDSKNSLYLQMNSLKTEDTAVYYCRYVHYGAYYGVDAWGQGTTVTVSS
VL: DIVMTQSPLSLPVTPGEPASISCRSSQSLVHSNRNTYLHWYQQKPGQAPRLLIYKVSNRLSGVPDRFSGSGSGTDFTLKISRVEAEDVGVYYCGQGTQVPYTFGQGTKLEIK
notes: one-arm format as m2

CD3ε homodimer protein, sequence (P07766 23-126 limits assumed): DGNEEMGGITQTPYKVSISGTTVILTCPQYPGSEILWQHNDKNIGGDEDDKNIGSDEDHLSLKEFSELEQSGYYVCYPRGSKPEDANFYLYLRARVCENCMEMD

The experiment addresses CD3ε homodimer protein (human, UniProt P07766 23-126, limits assumed). The experiment is described as follows: SPR, immobilized CD3ε homodimer.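 Also: biacore T200 surface plasmon resonance at 25 °C, antibody variants flowed as analytes over amine-coupled CD3ε homodimer on a CM4 chip, variant binding amount divided by that of GLS3000 antibody.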
Regarding B1, the “ratio of amounts bound (vs GLS3000)” value was 1.03.
Consider B2, for which the “ratio of amounts bound (vs GLS3000)” value was 0.72.
On to B3, for which the “ratio of amounts bound (vs GLS3000)” value was determined as 1.13.
With B4 the figure was 0.92; with B5, 0.69.
Take B6: the “ratio of amounts bound (vs GLS3000)” value stood at 0.65.
As to B7, the “ratio of amounts bound (vs GLS3000)” value was determined as 1.31.
With B8 the figure was 0.82; with B9, 0.69.
Turning to B10, the “ratio of amounts bound (vs GLS3000)” value was 1.31.
For the molecule B11, the “ratio of amounts bound (vs GLS3000)” value came out at 0.94.
With B12, the “ratio of amounts bound (vs GLS3000)” value was determined as 0.91.
Next, B13: 1.16; B14: 0.71; B15: 0.41.
Next, B16: 0.98.
For B17, the “ratio of amounts bound (vs GLS3000)” value is 1.33.
Next, B18: 1.13.
B19: the “ratio of amounts bound (vs GLS3000)” value stood at 0.8.
With B20 the figure was 0.76.
